Laboratory results published in US10428140B2, “Anti-EphA4 antibody” (EISAI R&D MANAGEMENT CO., LTD., priority 2015, dated 2019).
Where “and” joins values, the source holds several entries; their conditions need not be identical. Identical values can stand only once.

T1: human EphA1 (Homo sapiens, UniProt P21709)
T1 construct: a protein of the extracellular region of each human Eph receptor fused with the SEAP protein and the His tag; made in house; host or cells: Expi293F cells (culture supernatant)
T1 sequence (P21709 26-547 limits assumed): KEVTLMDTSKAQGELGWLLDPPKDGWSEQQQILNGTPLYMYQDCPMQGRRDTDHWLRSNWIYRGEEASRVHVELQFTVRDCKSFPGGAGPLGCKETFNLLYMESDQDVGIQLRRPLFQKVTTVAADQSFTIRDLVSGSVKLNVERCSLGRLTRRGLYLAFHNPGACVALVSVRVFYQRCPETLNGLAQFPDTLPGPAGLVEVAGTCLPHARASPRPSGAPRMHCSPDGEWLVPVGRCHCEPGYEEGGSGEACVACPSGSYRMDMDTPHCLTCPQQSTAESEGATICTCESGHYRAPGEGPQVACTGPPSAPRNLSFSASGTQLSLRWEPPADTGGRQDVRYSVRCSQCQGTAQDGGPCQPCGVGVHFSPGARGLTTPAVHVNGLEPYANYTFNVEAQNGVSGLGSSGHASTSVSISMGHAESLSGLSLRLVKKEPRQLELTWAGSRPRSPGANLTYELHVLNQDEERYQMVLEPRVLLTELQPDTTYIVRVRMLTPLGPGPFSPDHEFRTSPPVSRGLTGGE


Tests used:
human EphA4 = biological target: T2, human EphA4 (Homo sapiens, UniProt P54764); test: Affinity of humanized antibodies by SPR (Biacore T200); assay type: binding; conditions: human EphA4 extracellular region-SEAP-His; for ka / kd: 1:1 binding model; for Kd: KD=kd/ka
T2 construct: made in house; not restated for the human SEAP-His protein
Procedure, shortened: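 Humanized antibodies captured on protein A chip (antibody A via immobilized rat anti-mouse IgG1) at about 30 to 60 RU in HBS-EP; human EphA4 extracellular region-SEAP-His injected single-cycle at 0.6 to 50 nM, 120 s association, 900 s dissociation. KD = kd/ka from 1:1 binding fits.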

human EphA1 = biological target: T1, human EphA1; test: Selectivity ELISA of humanized antibodies for human Eph receptor; assay type: binding; conditions: coated protein 1 nM
Procedure, shortened: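 Human Eph ECD-SEAP-His fusions, harvested after 5 days of Expi293F expression, are captured on anti-His-coated wells (1 nM final). Bound humanized antibody is detected with HRP anti-IgG and TMB at 450 nm.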

T2 sequence (P54764 20-547): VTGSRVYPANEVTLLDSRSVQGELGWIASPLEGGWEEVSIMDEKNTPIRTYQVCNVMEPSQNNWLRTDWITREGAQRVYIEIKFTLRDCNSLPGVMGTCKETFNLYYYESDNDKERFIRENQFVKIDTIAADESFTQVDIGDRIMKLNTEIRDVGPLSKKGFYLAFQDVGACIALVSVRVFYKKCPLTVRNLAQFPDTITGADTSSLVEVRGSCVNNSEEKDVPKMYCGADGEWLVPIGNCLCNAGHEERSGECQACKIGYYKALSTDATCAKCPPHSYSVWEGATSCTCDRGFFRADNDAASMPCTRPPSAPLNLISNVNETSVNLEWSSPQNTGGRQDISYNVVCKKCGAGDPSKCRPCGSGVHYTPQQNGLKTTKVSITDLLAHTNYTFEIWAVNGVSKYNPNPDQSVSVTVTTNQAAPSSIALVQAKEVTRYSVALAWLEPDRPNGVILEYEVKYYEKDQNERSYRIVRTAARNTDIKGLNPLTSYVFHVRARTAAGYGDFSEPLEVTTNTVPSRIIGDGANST

| Molecule | ka (human EphA4) | kd (human EphA4) | Kd (human EphA4) | hEphA1-SEAP-: absorbance at 450 nm, percentage with respect to hEphA4-SEAP-His as 100% (human EphA1) [%] |
| --- | --- | --- | --- | --- |
| 138 (antibody, V domains shown, synthetic humanized antibody heavy chain variable region sequence; synthetic humanized antibody light chain variable region sequence) VH: QIQLVQSGSELKKPGASVKVSCKASGYTFTDYSMHWVRQAPGQGLKWMGWINTETGEPTYAQGFTGRFVFSLDTSVSTAYLQISSLKAEDTAVYYCARIPLYYYGSRYWYFDVWGQGTTVTVSS VL: DIQMTQSPSSLSASVGDRVTITCRASENIYRNLAWYQQKPGKAPKLLVYAATNLADGVPSRFSGSGSGTDYTLTISSLQPEDFATYYCQHFWGTPWTFGQGTKVEIK | 330000 M⁻¹ s⁻¹ and 290000 M⁻¹ s⁻¹ | 0.00043 s⁻¹ and 0.00039 s⁻¹ | 1.3 nM and 1.4 nM | 5.2 |
| 142 (antibody, V domains shown, synthetic humanized antibody heavy chain variable region sequence; synthetic humanized antibody light chain variable region sequence) VH: QVQLVQSGSELKKPGASVKVSCKASGYTFTDYSMHWVRQAPGQGLKWMGWINTETGEPTYADDFKGRFVFSLDTSVSTAYLQISSLKAEDTAVYYCARIPLYYYGSRYWYFDVWGQGTTVTVSS VL: DIQMTQSPSSLSASVGDRVTITCRASENIYRNLAWYQQKPGKAPKLLVYAATNLADGVPSRFSGSGSGTDYTLTISSLQPEDFATYYCQHFWGTPWTFGQGTKVEIK | 340000 M⁻¹ s⁻¹ | 0.0005 s⁻¹ | 1.5 nM | 5.6 |
| 141 (antibody, V domains shown, synthetic humanized antibody heavy chain variable region sequence; synthetic humanized antibody light chain variable region sequence) VH: QVQLVQSGSELKKPGASVKVSCKASGYTFTDYSMHWVRQAPGQGLEWMGWINTETGEPTYADDFKGRFVFSLDTSVSTAYLQISSLKAEDTAVYYCARIPLYYYGSRYWYFDVWGQGTTVTVSS VL: DIQMTQSPSSLSASVGDRVTITCRASENIYRNLAWYQQKPGKAPKLLVYAATNLADGVPSRFSGSGSGTDYTLTISSLQPEDFATYYCQHFWGTPWTFGQGTKVEIK | 390000 M⁻¹ s⁻¹ | 0.00062 s⁻¹ | 1.6 nM | 5.3 |

The remaining lines, values ahead:

| ka (human EphA4) | kd (human EphA4) | Kd (human EphA4) | hEphA1-SEAP-: absorbance at 450 nm, percentage with respect to hEphA4-SEAP-His as 100% (human EphA1) [%] | Molecule |
| --- | --- | --- | --- | --- |
| 400000 M⁻¹ s⁻¹ | 0.00082 s⁻¹ | 2 nM | 5.8 | 152 (antibody, V domains shown, synthetic humanized antibody heavy chain variable region sequence; synthetic humanized antibody light chain variable region sequence) VH: QVQLVQSGSELKKPGASVKVSCKASGYTFTDYSMHWVRQAPGQGLEWMGWINTETGEPTYAQGFTGRFVFSLDTSVSTAYLQISSLKAEDTAVYYCARIPLYYYGSRYWYFDVWGQGTTVTVSS VL: DIQMTQSPSSLSASVGDRVTITCRASENIYRNLAWYQQKPGKAPKLLLYAATNLADGVPSRFSGSGSGTDYTLTISSLQSEDFATYYCQHFWGTPWTFGQGTKVEIK |
| 350000 M⁻¹ s⁻¹ | 0.00051 s⁻¹ | 1.5 nM | 6.0 | 143 (antibody, V domains shown, synthetic humanized antibody heavy chain variable region sequence; synthetic humanized antibody light chain variable region sequence) VH: QIQLVQSGSELKKPGASVKVSCKASGYTFTDYSMHWVRQAPGQGLKWMGWINTETGEPTYADDFKGRFVFSLDTSVSTAYLQISSLKAEDTAVYYCARIPLYYYGSRYWYFDVWGQGTTVTVSS VL: DIQMTQSPSSLSASVGDRVTITCRASENIYRNLAWYQQKPGKAPKLLVYAATNLADGVPSRFSGSGSGTDYTLTISSLQPEDFATYYCQHFWGTPWTFGQGTKVEIK |
